The target of the test is recombinant protein TCRVB 6-5 (human). Description: SPR, compared with BJM0277.

The values below come from patent US20250340640A1.

Chain of recombinant protein TCRVB 6-5 (human) (TCR beta, as listed by the source): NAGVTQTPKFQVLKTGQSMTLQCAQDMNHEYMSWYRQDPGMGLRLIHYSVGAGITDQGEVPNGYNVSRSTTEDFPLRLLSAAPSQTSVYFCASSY

B1: A-H.45 (bispecific antibody, part only; not given: anti-CD19 arm, constant regions, linkers, not shown: another chain or arm of the molecule; a dimerising Fc or GST; small tags and cut ends)
scFv: QVQLVQSGAEVKKPGSSVKVSCKASGYSFTTYYIHWVRQAPGQGLEWMGWFSAGSGNTKYNEKFKGRVTITADTSTSTAYMELSSLRSEDTAVYYCAVSYYSYDVLDYWGQGTTVTVSSGGGGSGGGGSGGGGSGGGGSDIQMTQSPSFLSASVGDRVTITCKASQNVGINVVWHQQKPGKAPKALIYSSSHRYSGVPSRFSGSGSGTEFTLTISSLQPEDFATYFCQQFKSYPLTFGQGTKLEIK
Consider B1, for which the fold greater affinity than BJM0277 is 35 fold.
